The results in this text go back to patent US8957190B2, “Use of heat-resistant biotin-binding protein, and solid support having the protein attached thereto” (Japan Tobacco Inc., priority 2006, dated 2015).

Some results are limits rather than exact numbers.

Series [1] is described as follows: Fluorescent biotin-binding activity of tamavidin 1 after heat treatment at 70° C. The note with it: supernatant treated at 70° C. for 10 minutes, incubation at room temperature. The protocol: Fluorescent biotin-binding activity was measured for tamavidin 1 in the above centrifuged supernatant after heat treatment at 70° C. The same procedure as used for tamavidin 2 was repeated for this purpose. Incubation with fluorescent biotin was performed at room temperature.

The nature of series [2]: Heat resistance: protein stability (heating, SDS-PAGE band quantification). The series is classed as physicochemical. The note with it: for tetramer dissociation upon addition of biotin: biotin added, after treatment at 95° C.; for heat resistance higher than that of streptavidin: difference of 50% band-intensity temperatures; for temperature which caused a 50% reduction in protein band intensity: heated 20 minutes, soluble protein, SDS-PAGE, no biotin; for heat resistance higher than in streptavidin (summary statement): summary in disclosure. As for the experimental part:
(§1) 0.2 μg/μL TM2 and 0.2 μg/μL streptavidin were heated in 10 μL (2 μg) volumes at room temperature, 50° C., 60° C., 70° C., 80° C., 90° C. or 99° C. for 20 minutes, followed by centrifugation at 15000 rpm for 10 minutes. Each supernatant (soluble protein) was suspended in an equal volume of 2×SDS sample buffer (100 mM Tris-HCl pH 6.8, 12% 2-mercaptoethanol, 2% SDS, 20% glycerol), heated at 95° C. for 10 minutes and then analyzed by SDS-PAGE. Protein bands were detected by CBB staining. Using a Las-3000 system (FUJIFILM), a calibration curve was prepared based on quantification markers (LMW ELECTROPHORESIS CALIBRATION KIT; Pharmacia Biotech) and used to quantify the protein bands. The temperature which caused a 50% reduction in protein band intensity was 71° C. for streptavidin, whereas it was 87° C. for tamavidin 2.
as §1, with “Purified tamavidin 1 at a concentration of 0.2” for “0.2”, “was” for “TM2 and 0.2 μg/μL streptavidin were”, “As a result, the” for “The”, “76°” for “71° C. for streptavidin, whereas it was 87°”, “1.” for “2.”

Series [3] in a line: Heat resistance: fluorescent biotin-binding activity of heated biotin-binding proteins. The protocol: Based on the property of fluorescent biotin to lose its fluorescence intensity when bound to a biotin-binding site in a biotin-binding protein, tamavidin 2 was compared with streptavidin and avidin for biotin-binding capacity under high temperature conditions.
About 0.25 μg/μL TM2 and streptavidin were heated at room temperature, 50° C., 60° C., 70° C., 80° C. or 90° C. for 20 minutes. Solutions were prepared to contain the heat-treated TM2 or streptavidin at stepwise concentrations from 0 μL to 27 μL in 150 μL assay buffer (50 mM NaH2PO4, 100 mM NaCl, 1 mM EDTA (pH 7.5)). These solutions were each mixed with 50 μL (250 pmol) of a 5 pmol/μL fluorescent biotin solution (biotin-4-fluorescein; Molecular Probe) and allowed to stand at room temperature for 20 minutes, followed by measuring the fluorescence intensity with a Las-3000 system (FUJIFILM).
Heat resistance test on the biotin-binding proteins was accomplished as follows. About 0.25 μg/μL biotin-binding protein was heated at room temperature, 50° C., 60° C., 70° C., 80° C. or 90° C. for 20 minutes. Solutions were prepared to contain the heated biotin-binding protein at stepwise concentrations from 0 μL to 12 μL in 150 μL assay buffer. These solutions were each mixed with 50 μL (100 pmol) of a 2 pmol/μL fluorescent biotin solution and allowed to stand at room temperature for 20 minutes, followed by measuring the fluorescence intensity at Ex=460 nm and Em=525 nm with an Infinite M200 (TECAN).

Series [4] in a line: Activity measurement by means of fluorescent biotin (method of Kada et al.). The series is classed as binding. Conditions: room temperature. As for the experimental part:
By means of fluorescent biotin, tamavidin 2 was measured for its biotin-binding activity according to the method of Kada et al. (Biochim. Biophys. Acta., 1427: 44-48, (1999)). Solutions were prepared to contain the purified TM2 at stepwise concentrations from 0 pmol to 486 pmol in 200 μl assay buffer (50 mM NaH2PO4, 100 mM NaCl, 1 mM EDTA (pH 7.5)). These solutions were each mixed with 50 μL (1 nmol) of a 20 pmol/μL fluorescent biotin solution (biotin-4-fluorescein; Molecular Probe) and allowed to stand at room temperature for 10 minutes, followed by measuring the fluorescence intensity with a Las-3000 system (FUJIFILM). As a result, 0.274 nmol of TM2 was bound to nmol of fluorescent biotin. Namely, 3.6 mol of fluorescent biotin was bound to 1 mol of tamavidin. […] In the case of streptavidin, 3.4 mol of fluorescent biotin was bound per mol of streptavidin.

Series [5] can be described thus: Kinetic analysis of tamavidin 2-biotin interaction using a Biacore 3000 biosensor (surface plasmon resonance). Format: binding. The note with it: Biacore 3000, 25° C. The protocol:
Kinetic Analysis of Tamavidin 2 (TM2)-Biotin Interaction Using a Biacore Biosensor
Highly-purified BSA (2 mg, Sigma) and NHS-biotin (1 mg, Pierce) were dissolved in 1 ml of 50 mM sodium borate pH 8.0 and incubated at 4° C. for 2 hours. The NHS-biotin (EZ-Link NHS-LC-LC-Biotin) had been dissolved in a small volume of DMSO before addition. This solution was introduced into a dialysis tube (MWCO 6-8,000) and dialyzed overnight at 4° C. against 50 mM sodium carbonate pH 6.7. The biotin-BSA conjugate thus prepared (MW 67 kDa, 30 μM) was used as a ligand (a substance immobilized on a sensor chip) for a Biacore® biosensor. On the other hand, recombinant tamavidin 2 was prepared as an analyte (a substance flowing through channels) and analyzed for intermolecular interactions using a Biacore® 3000 (a biosensor designed on the principle of surface plasmon resonance, Biacore Inc.). Biotin-BSA and BSA alone (serving as a negative control) were each immobilized on CM5 sensor chips by amine coupling techniques. Their immobilized amount was adjusted to around 200 RU. BSA-immobilized chips were placed in flow cells 1 and 3, while biotin-BSA-immobilized chips were placed in flow cells 2 and 4. Tamavidin 2 was loaded into flow cells 1 and 2, while streptavidin was loaded into flow cells 3 and 4, each being loaded at a flow rate of 20 μl/min for 2 minutes in running buffer [10 mM HEPES pH 7.4, 150 mM NaCl, 3 mM EDTA, 0.005% Surfactant 20 (Biacore Inc.)]. The samples were then monitored for their dissociation over 60 minutes. […] The dissociation constant (Kd) was determined from kd/ka.
It should be noted that when the regeneration step was skipped, Rmax (the maximum binding amount of an analyte) was reduced ever time the measurement at each concentration was made. For this reason, Rmax was calculated by local fitting for each concentration during analysis. […]

A further series deals with salmon sperm DNA. Kind of series: Test for non-specific binding to DNA (slot blot, antibody detection). The note with it: 25 μg/mL protein, salmon sperm DNA 10 μg to 0.3 μg on membrane. As for the experimental part:
TM2 was analyzed for its non-specific binding to DNA. Serial dilutions of salmon sperm DNA (10 μg to 0.3 μg) in 2×SSC buffer were alkali-denatured and adsorbed onto a Hybond N+ membrane (Amersham Biosciences) using Bio-Dot SF (BIO-RAD). The membrane was blocked with 5×Denhardt's solution (0.1% BSA, 0.1% Ficoll, 0, 1% polyvinylpyrrolidone) and then immersed in a 25 μg/mL TM2, streptavidin or avidin solution at room temperature for 90 minutes. The membrane was then washed three times with TTBS buffer (TBS buffer containing 0.05% Tween 20) at room temperature for 5 minutes. The membrane was blocked with TBS buffer containing 0.5% skimmed milk and 0.01% Tween 20 for 1 hour. The primary antibodies used were rabbit anti-TM2 antibody (purified as described above) for TM2, rabbit anti-streptavidin antibody (SIGMA) for streptavidin, and rabbit anti-avidin antibody (Abcam) for avidin, which were diluted to give the same antibody titer before use. Antigen-antibody reaction with each primary antibody was performed overnight at room temperature. […] The membrane was washed three times with TTBS buffer at room temperature for 5 minutes, and then developed with an Alkaline Phosphatase substrate kit II, vector Black (Funakoshi Co., Ltd., Japan), followed by quantification with a Las-3000 system (FUJIFILM).

The mark [6] stands for this setting: 1:1 binding model, biotin-BSA ligand.

B1: Tamavidin 1: biotin-binding protein (SEQ ID NO: 2) purified from the edible mushroom Pleurotus cornucopiae var. citrinopileatus; recombinant from E. coli (protein, listed as Pleurotus cornucopiae)
chain: MKDVQSLLTGTWYNELGSTMNLTANKDGSLTGTYHSNVGEVPPTYHLSGRYNLQPPSGQGVTLGWAVSFENTSANVHSVSTWSGQYFSEPAEVILTQWLLSRSSEREDLWQSTHVGHDEFSKTKPTKEKIAQAQLLRRGLKFE
With B1, in series [1], the “binding to fluorescent biotin after heat treatment” value is reported as “found to bind to fluorescent biotin”. Besides, in series [2], the “tetramer dissociation upon addition of biotin” value was “tetramer dissociation was not observed”, the “heat resistance higher than that of streptavidin” value came to 5 °C, the “temperature which caused a 50% reduction in protein band intensity” value was 76 °C and the “heat resistance higher than in streptavidin (summary statement)” value was determined as 5 °C.

B2: Tamavidin 2: biotin-binding protein (SEQ ID NO: 4) from Pleurotus cornucopiae var. citrinopileatus, recombinant from E. coli, tetramer (protein, listed as Pleurotus cornucopiae)
chain: MSDVQSSLTGTWYNELNSKMELTANKDGTLTGKYLSKVGDVYVPYPLSGRYNLQPPAGQGVALGWAVSWENSKIHSATTWSGQFFSESSPVILTQWLLSSSTARGDVWESTLVGNDSFTKTAPTEQQIAHAQLHCRAPRLK
modifications: tetramer
Turning to B2, the “temperature which caused a 50% reduction in fluorescence intensity decrement compared to the unheated sample” value in series [3] (free protein, heated 20 minutes) was determined as 85 °C. Further, the “change in binding to fluorescent biotin compared to the room temperature value” in series [3] (heated at 70° C. or below, 20 minutes) was “no change”. In series [3] (heated at 80° C., 20 minutes), the “retained fluorescent biotin-binding activity” value stood at 82%. For the same molecule, in series [2], the “tetramer dissociation upon addition of biotin” value is recorded as “tetramer dissociation was not observed”, the “heat resistance higher than that of streptavidin” value was not below 15 °C, the “temperature which caused a 50% reduction in protein band intensity” value amounted to 87 °C and the “heat resistance higher than in streptavidin (summary statement)” value was not below 10 °C. For the same molecule, the “amount of TM2 bound to nmol of fluorescent biotin” value in series [4] (1 nmol fluorescent biotin added) was 0.274 nmol. Further, the “fluorescent biotin bound per mol of protein” value in series [4] (10 minutes) is reported as 3.6 mol. Besides, in series [5] (setting [6]), the “Association rate constant ks” value was found to be 919000 M⁻¹ s⁻¹ and the “Dissociation rate constant kd” value stood at 6.83e-06 s⁻¹. Moreover, the Kd (in general, the constant that tells how readily two partners part at equilibrium) in series [5] (determined from kd/ka, read-out: Dissociation constant Kd) was determined as 7.43 pM. Also, the “non-specific binding to DNA (staining intensity versus DNA concentration)” value in the series with salmon sperm DNA is listed as “not strongly affected by DNA concentration”.
